What all share (assay): BLI
(In general: In BLI a coated tip is dipped into the sample, and binding shifts an interference pattern.)

Assay [1] has as its target p52Shc lacking the PTB domain (p52ShcΔPTB), terminally biotinylated.
Assay [2] deals with T1, p52Shc lacking SH2 domain (p52ShcΔSH2), terminally biotinylated (biotin, terminal (end not stated)).
T1 chain: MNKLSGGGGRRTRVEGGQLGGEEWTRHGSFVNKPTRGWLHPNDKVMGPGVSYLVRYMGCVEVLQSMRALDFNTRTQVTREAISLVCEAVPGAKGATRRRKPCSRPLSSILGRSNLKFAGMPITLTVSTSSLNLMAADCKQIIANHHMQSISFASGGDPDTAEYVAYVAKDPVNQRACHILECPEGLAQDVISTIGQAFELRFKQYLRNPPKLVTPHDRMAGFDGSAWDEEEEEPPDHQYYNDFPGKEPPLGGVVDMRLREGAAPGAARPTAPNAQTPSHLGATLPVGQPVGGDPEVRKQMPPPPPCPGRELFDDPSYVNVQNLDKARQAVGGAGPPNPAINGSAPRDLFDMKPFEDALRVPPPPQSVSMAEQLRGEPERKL

The target in assay [3] is T2, non-phosphorylated full size p52Shc (treated with alkaline phosphatase) (UniProt P29353-2 1-473, biotin, terminal (end not stated)).
T2 sequence (looked up): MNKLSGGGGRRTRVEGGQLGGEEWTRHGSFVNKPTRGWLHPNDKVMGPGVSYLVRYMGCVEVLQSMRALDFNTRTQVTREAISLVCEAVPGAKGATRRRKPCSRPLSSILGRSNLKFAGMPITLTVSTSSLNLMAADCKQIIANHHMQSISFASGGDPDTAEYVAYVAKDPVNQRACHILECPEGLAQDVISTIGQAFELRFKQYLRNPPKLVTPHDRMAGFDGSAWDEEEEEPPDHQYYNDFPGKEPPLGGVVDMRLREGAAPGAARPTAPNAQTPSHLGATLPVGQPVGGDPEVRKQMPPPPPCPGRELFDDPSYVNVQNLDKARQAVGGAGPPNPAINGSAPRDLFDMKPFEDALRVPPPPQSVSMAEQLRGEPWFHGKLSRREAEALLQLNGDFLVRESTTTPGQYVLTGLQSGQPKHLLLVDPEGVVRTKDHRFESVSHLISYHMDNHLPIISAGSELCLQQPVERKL

The target of assay [4] is T3, full-length p52Shc, terminally biotinylated (UniProt P29353-2 1-473, biotin, terminal (end not stated)).
T3 sequence (looked up): T2 sequence (looked up)

“p47^phox::His (not biotinylated) (from UniProt P14598 1-390) (natural protein)”: the fold weaker affinity than full-length p52Shc in assay [1] was 10 fold.

B1: p47^phox::His (not biotinylated) (natural protein, UniProt P14598 1-390, looked up)
chain: MGDTFIRHIALLGFEKRFVPSQHYVYMFLVKWQDLSEKVVYRRFTEIYEFHKTLKEMFPIEAGAINPENRIIPHLPAPKWFDGQRAAENRQGTLTEYCSTLMSLPTKISRCPHLLDFFKVRPDDLKLPTDNQTKKPETYLMPKDGKSTATDITGPIILQTYRAIANYEKTSGSEMALSTGDVVEVVEKSESGWWFCQMKAKRGWIPASFLEPLDSPDETEDPEPNYAGEPYVAIKAYTAVEGDEVSLLEGEAVEVIHKLLDGWWVIRKDDVTGYFPSMYLQKSGQDVSQAQRQIKRGAPPRRSSIRNAHSIHQRSRKRLSQDAYRRNSVRFLQQRRRQARPGPQSPGSPLEEERQTQRSKPQPAVPPRPSADLILNRCSESTKRKLASAV
A word on the EC50: it is the concentration needed to bring the measured effect to its halfway point. As usually defined, the Kd is the concentration at which binding is half-saturated. B1 yielded an EC50 in assay [2] of over 50000 nM. The dissociation constant Kd in assay [3] is 780 nM; in assay [4] it was 200 nM.

Source of the values: publication PMC7478166 (Hepatology (Baltimore, Md.), 2020).
